These results are taken from paper PMC3708532 (RNA, 2013).

Where “and” joins values, the source holds several entries; their conditions need not be identical. Equal values may be shown once.

Data set [1] deals with the molecule itself. Put plainly: negative-stain electron microscopy.
The data set “cross-linking” deals with the molecule itself. Put plainly: cross-linking.

B1: Schmallenberg virus (SBV) nucleocapsid (N) protein (natural protein)
chain: MSSQFIFEDVPQRNAATFNPEVGYVAFIGKYGQQLNFGVARVFFLNQKKAKMVLHKTAQPSVDLTFGGVKFTVVNNHFPQYVSNPVPDNAITLHRMSGYLARWIADTCKASVLKLAEASAQIVMPLAEVKGCTWADGYTMYLGFAPGAEMFLDAFDFYPLVIEMHRVLKDNMDVNFMKKVLRQRYGTMTAEEWMTQKITEIKAAFNSVGQLAWAKSGFSPAARTFLQQFGINI
One may read the stoichiometry N as the number of molecules, sites or subunits per partner or assembly. As for B1, the “stoichiometry N” value is 4 and 5 in data set [1]; 3 in “cross-linking”.
